Assay results reported in paper PMC4150532.

T1: GST-Elp1 CTD (Saccharomyces cerevisiae) (UniProt Q06706)
T1 sequence: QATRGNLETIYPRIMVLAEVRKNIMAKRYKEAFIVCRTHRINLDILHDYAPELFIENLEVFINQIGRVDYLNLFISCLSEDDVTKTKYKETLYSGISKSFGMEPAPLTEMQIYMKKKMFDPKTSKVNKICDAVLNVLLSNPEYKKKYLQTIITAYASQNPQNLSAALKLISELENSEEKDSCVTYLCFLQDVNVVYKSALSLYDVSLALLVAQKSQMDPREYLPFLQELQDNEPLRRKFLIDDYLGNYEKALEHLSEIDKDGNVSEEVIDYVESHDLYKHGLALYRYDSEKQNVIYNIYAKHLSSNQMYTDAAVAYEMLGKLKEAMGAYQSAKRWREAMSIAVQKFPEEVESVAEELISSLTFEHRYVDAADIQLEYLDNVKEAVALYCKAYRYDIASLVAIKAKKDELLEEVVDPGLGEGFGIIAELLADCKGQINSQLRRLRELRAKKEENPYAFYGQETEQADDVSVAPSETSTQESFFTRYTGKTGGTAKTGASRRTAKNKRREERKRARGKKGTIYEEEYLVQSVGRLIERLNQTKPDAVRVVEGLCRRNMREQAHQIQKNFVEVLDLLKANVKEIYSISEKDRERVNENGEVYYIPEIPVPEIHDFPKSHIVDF


How the values were obtained:
[1] = target: T1, GST-Elp1 CTD (Saccharomyces cerevisiae); experiment: EMSA; conditions: native tRNA modifications; 5' phosphate removed, then 5' 32P-labelled; 20 mM Tris-HCl pH 7.5, 150 mM NaCl, 2 mM MgCl2, 8% glycerol, 10 U Ribolock; 45 min at room temperature; 1.5% native agarose gel in 0.5x TBE
[2] = target: Elp1–KR9A–GFP (GFP-tagged Elp1 basic region mutant, nine basic residues to alanine) (S. cerevisiae) (UniProt Q06706); experiment: co-IP; GFP–Trap beads precipitate the GFP-tagged protein from yeast lysate; HA-tagged partners found by anti-HA blot and measured by densitometry; lysis buffer 50 mM HEPES-KOH pH 7.5, 150 mM NaCl, 2 mM MgCl2, 0.1% Triton X-100; 4°C

percent less co-precipitated than with wild-type Elp1–GFP (densitometry) [2] [%] | Molecule | Kd [1] [nM]
– | total yeast tRNA (Sigma R9001) | 550
40 | Kti12-3HA (HA-tagged Elongator accessory protein Kti12) (natural protein) MPLVLFTGYPCSGKTTLAKHLVQLLQSKIDATPSLSKYSITYHSDESLGIKHSDYITSQDERKLRSEIISAVKRDLSKNKIVIVDSLNYIKGFRYQLHCEVKNLSTTFCVIQTLCPPETIFEWNKTSNPNPWEPELLNQLIQRYEEPNSSNRWDSPLFAILTPQDNITDYIDDICKVVFQTSKSAKNSGHNDPLSKGLQKPNSATVLKPASQSNFIQVLDIETSKIIKTIMNHIKSLTSIGGVSNGTRVIVSEGITDINDDGCFFVDLPIGNVVTLAQLQRLKRQFINFNKLRDIDQDRIGPLFADYLNKNLN | –
30 | Elp5-3HA (HA-tagged Elp5 subunit of Elongator) (natural protein) MASSSHNPVILLKRILSLTESSPFILCLDSIAQTSYKLIQEFVHQSKSKGNEYPIVYISFETVNKPSYCTQFIDATQMDFVHLVKQIISYLPAATATQAKKHMVIIDSLNYISTEYITRFLSEIASPHCTMVATYHKDIKDENRTVIPDWNNNYPDKLTLLQFMATTIVDIDVVLTGTLDTEEVSELLNEFRIPRGLNNDIFQLRLVNKRKSGRSLEYDFIVNSNTHEYELLSTTKQEEESSSNGLETPEMLQGLTTFNLGTSNKQKLAKDQVALPFLEAQSFGQGGAIVYEYEKDDDYDEEDPYEDPF | –
